Molecular target: the molecule itself
Assay: AUC; sedimentation equilibrium, interference optics, 10 °C, 25 mM HEPES pH 7.7, 100 mM NaCl, 2 mM DTE; four starting concentrations from stocks of 0.8–2 mg/ml; dimer to monomers, K D = 1/K A

B1: Drosophila PERIOD fragment dPER[232–599], wild-type (domain or fragment)
chain: not shown
notes: GST fusion from pGEX-6P2, GST removed with PreScission protease
B1 gave a Kd of 200 nM.

B2: mouse PERIOD2 fragment mPER2[170–473] (domain or fragment)
chain: GSSYSMEQVEGITSEYIVKNADMFAVAVSLVSGKILYISNQVASIFHCKKDAFSDAKFVEFLAPHDVSVFHSYTTPYKLPPWSVCSGLDSFTQECMEEKSFFCRVSVGKHHENEIRYQPFRMTPYLVKVQEQQGAESQLCCLLLAERVHSGYEAPRIPPEKRIFTTTHTPNCLFQAVDERAVPLLGYLPQDLIETPVLVQLHPSDRPLMLAIHKKILQAGGQPFDYSPIRFRTRNGEYITLDTSWSSFINPWSRKISFIIGRHKVRVGPLNEDVFAAPPCPEEKTPHPSVQELTEQIHRLLMQPVP
notes: two additional N-terminal residues (Gly168 and Ser169) seen in molecule 1 of the crystal, cloning artefacts; GST fusion from pGEX-6P2, GST removed with PreScission protease; also called crystallized mPER2 fragment
In the case of B2, the Kd is reported as 1340 nM.

B3: mouse PERIOD2 fragment mPER2[128–473], wild-type (domain or fragment, UniProt O54943 128-473, looked up)
chain: GKASTLATLKYALRSVKQVKANEEYYQLLMSSESQPCSVDVPSYSMEQVEGITSEYIVKNADMFAVAVSLVSGKILYISNQVASIFHCKKDAFSDAKFVEFLAPHDVSVFHSYTTPYKLPPWSVCSGLDSFTQECMEEKSFFCRVSVGKHHENEIRYQPFRMTPYLVKVQEQQGAESQLCCLLLAERVHSGYEAPRIPPEKRIFTTTHTPNCLFQAVDERAVPLLGYLPQDLIETPVLVQLHPSDRPLMLAIHKKILQAGGQPFDYSPIRFRTRNGEYITLDTSWSSFINPWSRKISFIIGRHKVRVGPLNEDVFAAPPCPEEKTPHPSVQELTEQIHRLLMQPVP
notes: also called N-terminally extended PAS domain fragment
B3 showed a Kd of 2250 nM.

B4: dPER[232–599] M560D (domain or fragment)
chain: not shown
notes: also called dPER(M560D)
B4 gave a Kd of 7140 nM.

B5: dPER[232–599] W482E (domain or fragment)
chain: not shown
notes: also called dPER(W482E)
With B5 the Kd was 3700 nM.

— PMC2671562, “Structural and Functional Analyses of PAS Domain Interactions of the Clock Proteins Drosophila PERIOD and Mouse PERIOD2” (PLoS Biology, 2009)
